Data reported in article PMC10141581.
Each block holds one substance with its values, some of them ahead of it.

Tests used:
[1] = target: 14-3-3ζ (UniProt P63104); assay: SEC-MALS of homodimer, 50 µM; details: reference: 14-3-3ζ wild type; sites S58
[2] = target: HSPB6 (Homo sapiens) (UniProt O14558); details: cited from earlier work
[3] = target: FLAG-CRBN (human) (UniProt Q96SW2); assay: co-IP; 20 μM purified Myc-14-3-3ζ added to lysate of HEK293T cells expressing FLAG-CRBN (Calyculin A, no phosphatase), 1 h; ANTI-FLAG M2 affinity gel; 50 mM Tris pH 7.5, 150 mM NaCl; Western blot with α-FLAG and α-myc
Chain of FLAG-CRBN (human) (Q96SW2 whole entry): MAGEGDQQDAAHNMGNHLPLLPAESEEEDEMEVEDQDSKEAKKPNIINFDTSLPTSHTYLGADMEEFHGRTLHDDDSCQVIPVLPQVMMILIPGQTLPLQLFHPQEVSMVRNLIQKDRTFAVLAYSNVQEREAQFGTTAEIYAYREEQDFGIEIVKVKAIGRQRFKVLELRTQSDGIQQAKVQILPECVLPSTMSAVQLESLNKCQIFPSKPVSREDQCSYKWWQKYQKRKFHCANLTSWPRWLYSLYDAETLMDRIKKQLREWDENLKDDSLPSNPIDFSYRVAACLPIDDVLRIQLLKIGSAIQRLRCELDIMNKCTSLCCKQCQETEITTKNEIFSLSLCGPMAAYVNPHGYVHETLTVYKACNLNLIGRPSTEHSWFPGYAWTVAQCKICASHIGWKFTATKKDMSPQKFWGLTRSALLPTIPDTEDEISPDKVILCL

[4] = target: HSPB6-pSer16 (UniProt O14558); assay: AUC; sedimentation equilibrium; 14.3, 7.2 and 3.6 μM; 8,000, 10,000 and 15,000 rpm; 5 °C; 50 mM Tris pH 7.4, 150 mM NaCl, 1 mM TCEP; global fit to A + B ↔ AB with fixed masses of a HSPB6 dimer and a 14-3-3ζ dimer
Chain of HSPB6-pSer16 (O14558 whole entry): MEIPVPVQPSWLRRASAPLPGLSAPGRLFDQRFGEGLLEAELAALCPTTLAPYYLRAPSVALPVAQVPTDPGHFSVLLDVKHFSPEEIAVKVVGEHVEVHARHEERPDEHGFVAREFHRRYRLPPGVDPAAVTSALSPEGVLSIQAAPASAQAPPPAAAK

[5] = target: HSPB6-nhpSer16 (UniProt O14558); assay: as above
[6] = target: 14-3-3ζ WT (human) (UniProt P63104); assay: SEC-MALS; 14-3-3ζ variants alone, injected at 50 μM initial concentration; Superdex 200 10/300 GL; 50 mM Tris pH 7.4, 150 mM NaCl, 0.5 mM TCEP; room temperature; dimer to monomers
[7] = target: HSPB6-pSer16 (UniProt O14558); assay: SEC-MALS; co-purified 14-3-3ζ/HSPB6 complexes, or purified HSPB6 mixed with 14-3-3ζ; Superdex 200 10/300 GL; 50 mM Tris pH 7.4, 150 mM NaCl, 0.5 mM TCEP; room temperature; samples at 50 μM
[8] = target: HSPB6-nhpSer16 (UniProt O14558); assay: as above
[9] = target: 14-3-3ζ (UniProt P63104); assay: His-tag co-purification after E. coli co-expression; details: reference: HSPB6 wild type (Ser16); sites S16

Chain of 14-3-3ζ WT (P63104 1-230): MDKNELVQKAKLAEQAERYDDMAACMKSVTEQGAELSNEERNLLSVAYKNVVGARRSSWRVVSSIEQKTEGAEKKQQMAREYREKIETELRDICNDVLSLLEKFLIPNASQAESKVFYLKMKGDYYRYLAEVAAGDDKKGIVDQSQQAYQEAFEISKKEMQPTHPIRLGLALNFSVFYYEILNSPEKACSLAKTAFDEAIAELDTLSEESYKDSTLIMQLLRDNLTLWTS
Chain of HSPB6 (Homo sapiens) (O14558 whole entry): as the sequence (O14558 whole entry) above
Chain of myc-14-3-3ζ nhpSer58 (P63104 whole entry): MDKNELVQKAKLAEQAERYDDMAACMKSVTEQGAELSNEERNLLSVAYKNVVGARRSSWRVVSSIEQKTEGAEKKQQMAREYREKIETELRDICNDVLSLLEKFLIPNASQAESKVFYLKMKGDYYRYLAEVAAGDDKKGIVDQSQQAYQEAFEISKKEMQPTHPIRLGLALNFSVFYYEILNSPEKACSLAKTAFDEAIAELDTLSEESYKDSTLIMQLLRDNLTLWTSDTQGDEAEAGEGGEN
Chain of 14-3-3ζ (from UniProt P63104) 14-3-3ζ pSer58 (genetic code expansion) (P63104 whole entry, change not shown): as the sequence (P63104 whole entry) above
Chain of 14-3-3ζ (UniProt P63104) (P63104 whole entry): as above
Chain of 14-3-3ζ (from UniProt P63104) (P63104 whole entry): as above

Substance: 14-3-3ζ (from UniProt P63104)
Kd [2]: 560 nM

Substance: myc-14-3-3ζ nhpSer58 (from UniProt P63104 1-245) (natural protein)
fold co-immunoprecipitated relative to myc-14-3-3ζ WT or pSer58 [3]: 10 fold

Substance: HSPB6 (small heat shock protein B6) (from UniProt O14558) HSPB6 pSer16 (genetic code expansion)
binding against the reference [9]: gained

More lines, now with the values ahead:

binding against the reference [1]: lost
Substance: 14-3-3ζ (from UniProt P63104) 14-3-3ζ pSer58 (genetic code expansion)

Kd [4]: 92 nM | Kd [5]: 120 nM | stoichiometry N [6]: 2 | stoichiometry N (14-3-3ζ chains per HSPB6 chain (2:2)) [7]: 1 | stoichiometry N (14-3-3ζ chains per HSPB6 chain (2:2)) [8]: 1
Substance: 14-3-3ζ WT (from UniProt P63104 1-230) (natural protein)
